Measurements published in patent US20250383350, “ANALYTE DETECTION USING APTAMERS” (The Regents of the University of Michigan, published 2025).

Legend:
VEGF165 [1] = biological target: T1, VEGF165 (Homo sapiens, UniProt P15692-4 P15692-4:27-191); assay: single-molecule TIRF; settings: tags: Abcam ab9571; captured by biotinylated anti-VEGF165 IgG (Bio-Rad); chain copies: 2; label: 3'-Cy5
VEGF165 [2] = biological target: T1, VEGF165; assay: single-molecule TIRF; same buffer as t22 G->A; settings: tags: Abcam ab9571; captured by biotinylated anti-VEGF165 IgG (Bio-Rad); chain copies: 2; label: 3'-Cy5
[3] = biological target: T2, IL-8 (CXCL8), captured by monoclonal antibody (Homo sapiens, UniProt P10145 P10145:28-99); assay: single-molecule TIRF; antibody-mediated capture; 25% horse serum, 21 C; kon 2.29e6, koff 2.32; settings: tags: Bio-Rad BR-1098; captured by biotinylated anti-IL-8 EPR19358-108; label: 3'-Cy5
T2 sequence (P10145 28-99, one chain of several): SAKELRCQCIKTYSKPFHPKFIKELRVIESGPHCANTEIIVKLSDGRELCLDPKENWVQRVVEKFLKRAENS
Method: (§1) SiMREPS assays of recombinant antigens-All sample handling was performed in GeneMate low-adhesion 1.7-mL microcentrifuge tubes, and dilutions were performed in 25% horse serum, 0.75×PBS, pH 7.4, and 7.5 mg/mL BSA. The slide surface was washed with 100 μL of T50 buffer (10 mM Tris-HCl, 50 mM NaCl, 1 mm EDTA, pH 8.0) for 10 minutes followed by the addition of 40 μL 1 mg/mL streptavidin. After 10 minutes, excess streptavidin was removed, and the sample chamber washed three times with 100 μL of 1×PBS. Next, the coverslip was coated with the biotinylated capture antibody by adding 40 μL of a solution containing 10 nM of biotinylated capture antibody in 1×PBS buffer and incubating for 30 minutes. […]
(§2) To systematically assess the effect of aptamer size on the kinetics of binding to the small (8.4 kDa) protein IL-8, two different antigen capture strategies were used: direct capture, in which C-terminally biotin labelled IL-8 was immobilized directly on the surface by the biotin-streptavidin interaction; and antibody mediated capture, in which non-biotinylated IL-8 was captured on the surface by a surface-immobilized biotinylated monoclonal antibody (FIG. 7A). […] To gain more quantitative insight, association and dissociation rate constants were calculated from the dwell time distributions in the aptamer-unbound and -bound states, respectively, and are shown in Table 2.

[4] = biological target: T3, IL-8 (CXCL8), C-terminally biotinylated, directly surface-captured (Homo sapiens, UniProt P10145 P10145:28-99); assay: single-molecule TIRF; direct IL-8 capture; 25% horse serum, 21 C; kon 3.21e6, koff 0.54; settings: tags: C-terminal biotin; Chemotactics B-CXCL8-2 ug; immobilized on streptavidin; label: 3'-Cy5
T3 sequence (P10145 28-99, one chain of several): as above
From the text: as §2

[5] = biological target: T3, IL-8 (CXCL8), C-terminally …; assay: single-molecule TIRF; direct IL-8 capture; 25% horse serum, 21 C; kon 5.68e6, koff 0.50; settings: tags: C-terminal biotin; Chemotactics B-CXCL8-2 ug; immobilized on streptavidin; label: 5'-Cy5
From the text: as §2

[6] = biological target: T2, IL-8 (CXCL8), captured by monoclonal …; assay: single-molecule TIRF; antibody-mediated capture; 25% horse serum, 21 C; kon 4.48e6, koff 1.17; settings: tags: Bio-Rad BR-1098; captured by biotinylated anti-IL-8 EPR19358-108; label: 5'-Cy5
Method: as §1, §2

[7] = biological target: T3, IL-8 (CXCL8), C-terminally …; assay: single-molecule TIRF; direct IL-8 capture; 25% horse serum, 21 C; kon 2.08e6, koff 0.55; settings: tags: C-terminal biotin; Chemotactics B-CXCL8-2 ug; immobilized on streptavidin; label: 3'-Cy5
From the text: as §2

[8] = biological target: T2, IL-8 (CXCL8), captured by monoclonal …; assay: single-molecule TIRF; antibody-mediated capture; 25% horse serum, 21 C; kon 0.99e6, koff 2.50; settings: tags: Bio-Rad BR-1098; captured by biotinylated anti-IL-8 EPR19358-108; label: 3'-Cy5
Method: as §1, §2

T1 sequence (P15692 other isoform, or with tags, fused parts or gaps): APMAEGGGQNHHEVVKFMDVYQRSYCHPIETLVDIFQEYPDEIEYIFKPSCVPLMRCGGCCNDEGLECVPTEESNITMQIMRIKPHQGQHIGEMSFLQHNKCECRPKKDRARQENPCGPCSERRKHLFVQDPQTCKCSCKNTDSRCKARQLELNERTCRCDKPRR

GCGGUAGGAAGAAUUGGAAGCGC (ssRNA, 2'-F at all pyrimidines) [t22 (SEQ ID NO 4)]
kon (VEGF165 [1]): 220000 M⁻¹ s⁻¹
koff (VEGF165 [2]): 0.02 s⁻¹

GGGGGCUUAUCAUUCCAUUUAGUGUUAUGAUAACC (ssRNA, 2'-F at all pyrimidines) [8A-35 (SEQ ID NO 2)]
Kd [3]: 1010 nM
Kd [4]: 168 nM

GGGUUAUCAUUCCAUUUAGUGUUAUGAUAA (ssRNA, 2'-F at all pyrimidines) [8A-30 (SEQ ID NO 3)]
Kd [5]: 88 nM
Kd [6]: 261 nM

B1: 8A-44 (SEQ ID NO 1) (ssRNA)
RNA: GGGGGCUUAUCAUUCCAUUUAGUGUUAUGAUAACCUCUCCCAUA
modifications: 2'-F at C and U (printed i2FC/i2FU up to position 36; text states all pyrimidines)
Kd [7]: 264 nM
Kd [8]: 2520 nM
